Experiment: soluble on expression in E. coli; label from the status in PepcDB or PDB records

| Sequence | soluble on expression in E. coli |
| --- | --- |
| MGSDKIHHHHHHMGEVIKNRYEFVVLFDVENGNPNGDPDAGNMPRIDPESGLGIVTDVCLKRKIRNYIETVKEDEDGYKIYIKENVPLNRSDREACKSLGINDDEDKKVTEALKKLKKSDKDADIKLRDYMCRNFYDIRAFGAVMTTFVKASLNCGQVRGPVQLGFARSIDPVISQEVTITRVAITTEKDAENKSNEMGRKSIVPYGLYRVEGYISANLARKVTGFSEEDLELLWDAVINMFENDHSAARGKMAVRELIVFKHSKELGDCPAYKLFDAVKVQKNDDIQYPRKYQDYTVTINDDEIPDTVEVKRMI | not soluble |
| MAHHHHHHMNNSKENDSVSKLSFKNKNIKLIKVPKFVSNKWLQYNNKDIVGLLGCNNNNNNDSEITELYVQKDDSDNVKKLRCNKNNTVNTYILKQNVIKLKSTNKSVSNSAGTLNNKSNDYTNTNKGKNTMNNLSKDNSDKHKEFDYVVCADLIKTCDYTYSFLPTLDQDYSSILKERHYKTNVKKERFTIIETRNEENMDATHTLFKYYTSEDKLNNESKDKNMKNNKRLFTDNDNLNTVSHSTSKQKAKQSKKMHVFDLDKAKISIFKIFEREGQNGVPFSFFTKSFNIPANHIKGILDEIAIKGKRDTDKKTVYFLKNCIG | not soluble |
| MLSATLLNRTVFHSLSPLHSLAHLASDMESSVNKAPSLIAAIVLGLGISACGYFVGDGVKHLKTNNRYVNVRGLSEKEVRADTAELTIAINFKGNVPGELFPKLEEAQKKIVAELNAQGINEKEIILGQWTSKRTDSFYLKDDPTMPRYNADGSVTIKTHNVAAVEKVVAKLNELQVATDGAIAESKVAYRFNGIGALRAEMIAAATKDARNAALQFATDSGSQVGSISDASQGVFQIFASGSDEDDPTAINKTVRVVTTVTYALQD | not soluble |
| MSLILLNTITDQVSVSETQTKSPRLWMPERVLFTPAALGEDWGQQILARVQSLNLPIEELSQNRLKGLRGESERDTYNIAKRTLAVVTAPPSSFKLSPIPPSADWQFHIAEGCPAHCQYCYLAGSLSGPPVIRVFANLPQILENLANYEQQGKTTTFEVSCYTDPLGIEHLTGSLAECIRYFGTRTNAHLRWVSKFDAVDGLLDLPHNGNTRCRMSVNAAPISGKFEGGTASVASRLNALRRLALPQERGGGGYPVGLVIAPIMPIDDWQMHYSRLFDQINEALDFDCNFTFELISHRFTPGSKEVLQAWYPQSKLEMDEAKRSVKRNKFGGTKYVYEKDTMKALRSFFESEISRRFPNAETLYWTEGHHHHHH | soluble |
| MQSLMNNPVTRSNAPCLIVGIGYTTGSVRDLAQRAADYTPPLGDNATADERRQFGQADRFADFIDSELTAFLESRYTLNRNETAVFGHSFGALFGLYSLLSHRCFRRHWLVSPSIWWHNRRILDFMPSENRLDGIDACLNIGALERSSGCKRREERDMAGQAEQMAAELDRRGTAVFFREYPNADHGNVPFYSLTDCVEYLRE | not soluble |
| MGSDKIHHHHHHGKGQQPSEENEDPKAKEILQGIWLDDETETPLMRIIGDTIYYSDAQSAPVYFKILKDTLYTYGKDVTHYQIDKQSEYSFWFHSLADNIIKLHKSEDPNDTLAFSFKSVEIIPTYTEVTKKDSVVMFDGVRYRAYVYINPSQMKVVKTTYSEDGISMDNIYYDNVMHICVYEGKKSLYAKDITKQMFVDVIPTDFLQQAILSDMNFIGIDRKGYHYQALVCIPESPVCNLVNLTISFDGKLNITAAKYK | not soluble |
| HMDIRPRLRIGQINLGGAEDATRELPSIARDLGLDIVLVQEQYSMVGFLAQCGAHPKAGVYIRNRVLPCAVLHHLSSTHITVVHIGGWDLYMVSAYFQYSDPIDPYLHRLGNILDRLRGARVVICADTNAHSPLWHSLPRHYVGRGQEVADRRAKMEDFIGARRLVVHNADGHLPTFSTANGESYVDVTLSTRGVRVSEWRVTNESSSDHRLIVFGVGGGTTGERDEDEEARSDLRPGEP | soluble |
| GPGSMGVVLRELRMRQESATFLLAAVSVNPLLRCAWEDLACLVSRETQLAELDAALDGLEPFFMVDIFAAEVRGLLGVTPVSSARLRIAAAAASAPSDGFEPSPPCSAPPEGHAATTTATAAKAGTRTSPLLPPPRTNAGATPPIPAAALSNAWECFSLLFPDTPFCLSQLAHFYYHQRNRLDRAEALYQRIRALDPHYLAILYDYSNVLYTKRDRLGLSSLAQSVYQADAFRAETNFAVGNYYVLLGQHDRAALHFHRATAIDPQCAEAWLLLGHAYVEVKNTTAAVEAYRTAVELNERDYRGWYNLGQIYELLEAYHHALYYYWHTTSLRPADPGMWVAVANCLEHDGRIAESIACLERAETYDSSSSPSYPAYVRRIATHHIANSSYTRACVYLEKLAQSPAASTEDLLLALPFIVQHYVQRARSSVEGFARSSSYDTVLFSPGANNVSLMSSPASGAVAAGRTALHHARAAAALQHLNKAEEHLSTMAELVMPSGHNGAGNEEAAQTPATSAAAGESEQGGAENTAPQRAAEDAPHRRRTRQPRSGAAANASVSASASAALAAVAASTAPSAGDVPPVAFVRSRHQEIGMLRAQAMHLLQIGAGASGSTIPVAASASASVATQPSSSSSQQQQQQQQQRHQQHRNPFVSQLLGRYQ | not soluble |
| MIFKKEPKRYTVEDTIPYLRLLKSGICQLDEKHFSKSIAFQDINYQLALDEDRDLIFNQFANFLNSFDPSISIEFSYVNQLGRNEEMKSAIQIPDKKDGFDDIRFEFREMLKSQIVKGNNGLKKSKYVTFTVEADNLEQATSKLERLEIDILSNLKSMGVRAESLNGEERLKILHDVLNPNKTFEFSYKDLKKRESTKTYIVPDEFNFTPSRYFKFGKFIGATSHFQILASELSDRMLSEFLDIDDNINISFHIRAIDQSEAIKMVKRKNTDIDKMKIEENKKAVRSGYDMDILPSDLITYGEDVKSLLKDLQTRDERMFVVSIVFMNFARTVQKLDNTIAQISSIANKHNCKLKRLDHSQEQGLVSMLPLGVNKIEIDRGLTSSSTAVFMPFTTEELFINSSNSLYYGLNALSHNLIMADRKKLKNPNGLILGTPGSGKSFSAKREMANAILVTDDDVIICDPEGEYGNLVRQFKGEVIKVSSKSKDYLNPLDINMNYGDGDAPLKDKANFIMSMLELVVGGSGLTAEEKSVIDRCLPKIYEKYFEHPTPDNMPILQDLYDMLKGQEEKVGKKLATEMEIYVSGSLNVFNHRSNVDLNKKLLCFDIKELGSQLKKIGMLVIQDQVWNKVSQNRGNKATRYYIDEFHLLLKDEQTASYSVEIWKRFRKWGGIPTGITQNVKDLLMSKEIENIFDNTDFVLMLNQASGDREILARKLKISLPQLRYVTNSNEGEGLLFFGNTIVPFLDKFPKDTILYQKMTTKPEEVRLEHHHHHH | soluble |
| MKYFNVGKIVNTQGLRGEVRVLSVTDFADERFKKGSQLALFDKKDHFAMTVEIASHRKHKNFDIVKFKGLYHINDVEKYRDFTLKVTEDHLADLEDGEFYYHEIIGLDVYENDILIGQVKEILQPGANDVWVVKRKGKKDLLLPYIPSVILKVDVPNGRIDVTVLEGLDDENLEHHHHHH | soluble |
| PKIENPILIEGYPGIGLVGHIAANFLAKELKMEVIGYVESSFIPPMSLILEGKPNPPLRFYGKDNIIIAVADIYLPPTLINEIAKEIANYLEQNKAEKVISLGGMGIGIFKDKFEVWGVGGTEEENKELQDLGVKILEYGSISGMSGKLLWEASRRGLKSYVILGETFGDRPDPRAAANVVEVLDRMLTLNVSVEPLLKEAEMIEEQLRKMHEQMEKARRSVEKQYETMYL | not soluble |
| MHIKSIHLDGFKSYQKHTDILDFSPTFNAITGYNGSGKSNILDSICFIMGINKLDNIRAKSMHELISHGGTKAIVQVRFDNTDKRCSPFGMEHLDEIVVQRIITAQATGKGCATSYTLNGHAATNGKMQDFFRGVGLNVNNPHFLIMQGRITTVLNMKPEEILGMVEEAAGTKMYDQKKKDAEKTMFLKDAKLKEVDRIFQSSIDPRMVKFREDRKNMVEVTRLKKLKENFSRKYEAFQYFQTCEAVKKSAKEIEDAKKGIEDLGEKFNQLDLDLKNKEDEKKKMEESRDDQHEEAALSAAHLSKQSIMLQKETVKNQLVETINKLKKEGEQINKSLSKDREVLDAKRKEHEDSKAANSKDIQSQSDDEALVTKYRNDLESLTRGTIANDKGEHVSIESEIQSCKSTASQMSSGITAAKKRGERLHNQIKHLEGEKATLSARSKSDIGSADNYQKEVDEINKQLQLLGFNIDADTEKREHAAKLHESITKLKDMDTRLLNSYKDGRYALNYQRPPLHIDKFDEKRDVFGYVAHLIKMKPGCEQFAVAADIALGGVLGNVVVSTQDIARILIDGKAFTSRKTMIPVSENARNASSYNTLPDVKLRRAKEIAEKYNDTVTKMIDLIEYPDFISNTILNAVGQILVVDSLDVAREIAYDEVAKTRMITRRGDDVRTNGIMTGGYNDPGNKPALIALEPMYARRPQIEAQQRELDALNRELQLTEASSQKCRDLNNQLATAMRKLAQVKTNINNSEFGIVVRDLKVHSEEYEKNQAEIEATVKTLKDVEDKIKTLESMKNKDKNSQEKRKKELTALLQKAEQTVAQNKNRGEKARREVMLLQATVEEMEKTIKKDEGIWEQKKKECDELEEKLPNAIAALKDAELEQKAAQAKLNDLKNNQRQISTRLGKIAKECDALIREKAKTKSKREEKEKELTSLQQSEASNRKEARSKLKKFEWLSDEEAHFNKKGGLYDFEGYTVSKGKDEIKELTDKIETLERSCCIQNVSNLDTCEAKVLDIKNKRERITEDFNMLKKTIATLDKKKVDELIRAHESVNKDFGQIFNCLLPDAHASLVPPEGKTVCEGLEVKVSFGGVVKDSLHELSGGQRSLVALSLILAMLKFKPAPLYILDEVDAALDLSHTANIGMMIKTHFHHNQFIIVSLKQGMFSNADVLFQTRFADGHSTCTRLNGGDIAVLCQDKVLQAQALELTDAGKAKKDAAAKKGAQKNDKEPPKKKPIVVDDDDFE | not soluble |
| MAHHHHHHMSATPKQPSTATTSISSDEKWDHSLETLIRKSTIGFASGILPGLLLARSPAARSAIIALCTGVGSGIAYGEARYLFDHDIMFDKRHLIQVQVVGGSSSQQSGAQKSME | not soluble |
| MSRSTFSILPYINRQKVKADGTANILCRITVDGKSAAISTGISCTPQEWNAKKGEVRNARDNGRLASFLDEIKDKYNALLVANGIITVEMLKAVLKDKDTTGRFLLSFGDTIVEWYRTAKARQTFLHKRTWQKNLRDFVHSLDKDDIAFEDIDENFGEEYKLFLKRDQGRIDSYVNHCLLWLNMLMYKAVDRSIIRFNPIAKIGYEKKAAPKMTHISKADFIKMLSTPMADERTELARRCFIFASLTSLSYIDVKKLYPRHISENSEGRKFIRKEREKTGVEFFVPLHPIAEKILSLYNTTDDSKPVFPLGEKKDIYLDVHTLGMVLGISNKLGFHASRHTFGVLMLNEDIPIGSIAKMMGHADITSTQVYAQVTEQKISNDMDKLIAKREMNRLSNEKTIGK | not soluble |
| NAIQWVEHTDRVINNTNRSMKLSIDMETGMRGFLLTGDQHFLDPYEIAKPLLVAELNGLQDLVKDNPTQQDRFRRLFTMQQEWNVFAQDMIDLRRNNGDFQTPVLAGRGKRITDQIRTEYEQAVEMEQQLRLTRNAE | not soluble |
| MAGDPMIRKPAVAGYFYPSNRNELLSLISSFHVQQSEVSCQPIGVVVPHAGIVYSGRTAMYSYNALRNSSIRDFIIIGPNHRPMTPYASIFPSGSWETPLGNAIINEELASELYKNSQYIVKDEESHSVEHSIEVQIPFLQYMFGNSFTFVPVILGDQEKVVANDIASALMRLSKPYILIASSDFTHYERSDIVERKDMDLISRIVDLDIDGFYDTIERENVTACGYGAIAILMIIAKKIGAKISLLNHSNSGDVTNDYDEVVGYSSIVACRQILEHHHHHH | not soluble |
| MKFEAIAVEKIPLIHEGDNLPSIICEKIGLQDRDIMIIASTIVAKAEGEIFRLEDITPGEEALEIAARTGKDPRFIQAVLSKSREVFVETPFMLVTTLAGHTCVNAGIDESNIENGFLLYPPENPDASALKIGKELEKLSGKKLSIIITDTNGRAFKIGQTGVAIGIYNIKPVKRWIGEKDLFGKVLEITEQAIADELAGAANLLMGEGAGGIPVVIIRGLDYYCEGDTSIKESYRPENMDVIKQGLRCLRNKK | not soluble |

Source: the DeepSol protein solubility set
